The values that follow are results of earlier work, collected in PMC11442857.

This series concerns the target Bovine serum albumin, fatty-acid-free (FAF-BSA) (UniProt P02769). Briefly: Analytical ultracentrifugation, sedimentation equilibrium. As to conditions: pH 7.2, 10 °C, PBS (concentration not stated).
Chain of UniProt P02769 (P02769 whole entry): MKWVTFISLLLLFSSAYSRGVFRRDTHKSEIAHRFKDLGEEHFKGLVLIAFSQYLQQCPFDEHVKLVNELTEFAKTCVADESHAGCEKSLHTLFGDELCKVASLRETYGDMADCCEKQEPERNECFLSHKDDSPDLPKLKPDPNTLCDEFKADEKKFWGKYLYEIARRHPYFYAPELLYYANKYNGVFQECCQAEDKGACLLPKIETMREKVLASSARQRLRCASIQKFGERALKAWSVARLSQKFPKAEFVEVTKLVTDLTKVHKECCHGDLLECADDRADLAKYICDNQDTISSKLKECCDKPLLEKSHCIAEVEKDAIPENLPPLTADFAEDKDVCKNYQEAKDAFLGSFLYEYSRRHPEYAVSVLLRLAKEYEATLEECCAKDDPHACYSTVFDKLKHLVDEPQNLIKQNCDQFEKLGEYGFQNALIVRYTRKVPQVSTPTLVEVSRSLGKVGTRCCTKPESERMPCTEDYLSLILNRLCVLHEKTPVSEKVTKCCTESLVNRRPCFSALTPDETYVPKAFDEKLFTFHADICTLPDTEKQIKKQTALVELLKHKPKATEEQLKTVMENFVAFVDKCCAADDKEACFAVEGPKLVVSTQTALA

For “Bovine serum albumin, fatty-acid-free (FAF-BSA)”, the Kd dimer was 4.5 mM.
